The source of these data is the supplement of paper PMC9112550, “Optimization of the antimicrobial peptide Bac7 by deep mutational scanning” (BMC Biology, 2022).
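Also: peptides expressed intracellularly from a pBAD plasmid library in pooled LB shake-flask culture, induced with 0.3% L-arabinose, DNA abundance read by NGS, three biological replicates, DESeq2 with apeglm shrinkage.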

The data set has as its system Escherichia coli TOP10. The data set is described as follows: shrunken log2 fold change of peptide-encoding DNA abundance (4.5 h post-induction vs induction); higher = less antimicrobial activity (less host growth inhibition). The following applies: time post-induction: 4.5 h; library: site-saturation at positions 5, 18, 19, 20.
RRIRYRPPRLPRPRPRPFQIPRP: the “shrunken log2 fold change” value was -0.0359.

In the case of RRIRNRPPRLPRPRPRPHCTPRP, the “shrunken log2 fold change” value is -0.0475.

For RRIRDRPPRLPRPRPRPEQHPRP, the “shrunken log2 fold change” value amounted to 0.465.

With RRIRLRPPRLPRPRPRPVQLPRP, the “shrunken log2 fold change” value amounted to 0.0978.

On to RRIRVRPPRLPRPRPRPYICPRP, for which the “shrunken log2 fold change” value was -0.468.

RRIRCRPPRLPRPRPRPMCWPRP: the “shrunken log2 fold change” value is 0.0297.

For RRIRIRPPRLPRPRPRPNAWPRP, the “shrunken log2 fold change” value was determined as 0.213.

On to RRIRSRPPRLPRPRPRPILTPRP, for which the “shrunken log2 fold change” value was -0.125.

Turning to RRIRGRPPRLPRPRPRPSSVPRP, the “shrunken log2 fold change” value came out at 0.282.

As to RRIRDRPPRLPRPRPRPGAVPRP, the “shrunken log2 fold change” value was found to be 0.614.

On to RRIRARPPRLPRPRPRPVIYPRP, for which the “shrunken log2 fold change” value was -0.308.

Regarding RRIRVRPPRLPRPRPRPNPKPRP, the “shrunken log2 fold change” value was -0.0645.

With RRIRVRPPRLPRPRPRPPHAPRP, the “shrunken log2 fold change” value was determined as 0.351.

Turning to RRIRERPPRLPRPRPRPMETPRP, the “shrunken log2 fold change” value turned out to be 0.015.

Regarding RRIRGRPPRLPRPRPRPVEMPRP, the “shrunken log2 fold change” value was 0.556.

Take RRIRWRPPRLPRPRPRPPPTPRP: the “shrunken log2 fold change” value is 1.59.

Consider RRIRGRPPRLPRPRPRPMLWPRP, for which the “shrunken log2 fold change” value amounted to 0.737.

As for RRIRCRPPRLPRPRPRPMDWPRP, the “shrunken log2 fold change” value was -0.0172.

Turning to RRIRLRPPRLPRPRPRPYRTPRP, the “shrunken log2 fold change” value is -0.197.

Take RRIRIRPPRLPRPRPRPEWSPRP: the “shrunken log2 fold change” value is -0.26.

Consider RRIRFRPPRLPRPRPRPQHVPRP, for which the “shrunken log2 fold change” value was -0.315.

Take RRIRLRPPRLPRPRPRPYIQPRP: the “shrunken log2 fold change” value is -0.337.

As to RRIRPRPPRLPRPRPRPQGFPRP, the “shrunken log2 fold change” value is -0.0446.

Turning to RRIRYRPPRLPRPRPRPHPRPRP, the “shrunken log2 fold change” value was -0.392.

Regarding RRIRPRPPRLPRPRPRPKTWPRP, the “shrunken log2 fold change” value came to 0.0474.

For the sequence RRIRWRPPRLPRPRPRPDDLPRP, the “shrunken log2 fold change” value was -0.024.

With RRIRWRPPRLPRPRPRPDHQPRP, the “shrunken log2 fold change” value is -0.197.

With RRIRMRPPRLPRPRPRPHMCPRP, the “shrunken log2 fold change” value is 0.000241.

As for RRIRFRPPRLPRPRPRPRFKPRP, the “shrunken log2 fold change” value is -0.281.

Consider RRIRDRPPRLPRPRPRPYMVPRP, for which the “shrunken log2 fold change” value was determined as 0.0212.

For RRIRWRPPRLPRPRPRPPCGPRP, the “shrunken log2 fold change” value turned out to be 0.255.

For the sequence RRIRWRPPRLPRPRPRPACFPRP, the “shrunken log2 fold change” value was 0.513.

With RRIRCRPPRLPRPRPRPHLAPRP, the “shrunken log2 fold change” value is -0.0147.

Regarding RRIRSRPPRLPRPRPRPFFLPRP, the “shrunken log2 fold change” value is -0.16.

On to RRIRRRPPRLPRPRPRPAIRPRP, for which the “shrunken log2 fold change” value was -0.0892.

With RRIRWRPPRLPRPRPRPDKTPRP, the “shrunken log2 fold change” value was -0.0185.

Consider RRIRFRPPRLPRPRPRPIIFPRP, for which the “shrunken log2 fold change” value was -0.621.

For RRIRKRPPRLPRPRPRPTPKPRP, the “shrunken log2 fold change” value amounted to 0.334.

For RRIRFRPPRLPRPRPRPLKKPRP, the “shrunken log2 fold change” value came to 0.251.

RRIRSRPPRLPRPRPRPATVPRP: the “shrunken log2 fold change” value is -0.15.

For RRIRYRPPRLPRPRPRPKPQPRP, the “shrunken log2 fold change” value was -0.115.

Consider RRIRMRPPRLPRPRPRPHYIPRP, for which the “shrunken log2 fold change” value is -0.335.

With RRIRFRPPRLPRPRPRPWMLPRP, the “shrunken log2 fold change” value is -0.277.

With RRIRMRPPRLPRPRPRPTKCPRP, the “shrunken log2 fold change” value worked out at 0.331.

RRIRMRPPRLPRPRPRPLTCPRP: the “shrunken log2 fold change” value was -0.0821.

On to RRIRARPPRLPRPRPRPRIYPRP, for which the “shrunken log2 fold change” value was -0.0488.

On to RRIRIRPPRLPRPRPRPTYLPRP, for which the “shrunken log2 fold change” value is -0.463.

RRIRGRPPRLPRPRPRPPITPRP: the “shrunken log2 fold change” value amounted to 0.0357.

As for RRIRWRPPRLPRPRPRPNQPPRP, the “shrunken log2 fold change” value was determined as 0.198.

With RRIRKRPPRLPRPRPRPNRTPRP, the “shrunken log2 fold change” value was -0.0227.

Consider RRIRHRPPRLPRPRPRPHLHPRP, for which the “shrunken log2 fold change” value is -0.513.

Take RRIRARPPRLPRPRPRPMIYPRP: the “shrunken log2 fold change” value was 0.00125.

In the case of RRIRWRPPRLPRPRPRPLQQPRP, the “shrunken log2 fold change” value was determined as 0.115.

Turning to RRIRSRPPRLPRPRPRPVYPPRP, the “shrunken log2 fold change” value is -0.11.

On to RRIRNRPPRLPRPRPRPWCSPRP, for which the “shrunken log2 fold change” value was -0.535.

Consider RRIRTRPPRLPRPRPRPFMCPRP, for which the “shrunken log2 fold change” value was -0.126.

Take RRIRNRPPRLPRPRPRPIFVPRP: the “shrunken log2 fold change” value is -0.0459.

RRIRKRPPRLPRPRPRPFDIPRP: the “shrunken log2 fold change” value is -0.0132.

Take RRIRIRPPRLPRPRPRPIQTPRP: the “shrunken log2 fold change” value is -0.0155.

With RRIRPRPPRLPRPRPRPWKRPRP, the “shrunken log2 fold change” value is -0.0317.

In the case of RRIRFRPPRLPRPRPRPLRNPRP, the “shrunken log2 fold change” value is 0.514.

Turning to RRIRPRPPRLPRPRPRPWLDPRP, the “shrunken log2 fold change” value turned out to be 0.164.

Take RRIRFRPPRLPRPRPRPWWTPRP: the “shrunken log2 fold change” value was 0.0245.

With RRIRIRPPRLPRPRPRPVRGPRP, the “shrunken log2 fold change” value was determined as 0.413.

Turning to RRIRNRPPRLPRPRPRPTFAPRP, the “shrunken log2 fold change” value was 0.343.

RRIRKRPPRLPRPRPRPFPLPRP: the “shrunken log2 fold change” value was 0.289.

For the sequence RRIRQRPPRLPRPRPRPITWPRP, the “shrunken log2 fold change” value turned out to be 0.129.

With RRIRQRPPRLPRPRPRPGFMPRP, the “shrunken log2 fold change” value was -0.176.

Turning to RRIRGRPPRLPRPRPRPPFHPRP, the “shrunken log2 fold change” value came to 0.24.

RRIRDRPPRLPRPRPRPCGAPRP: the “shrunken log2 fold change” value came out at 0.838.

On to RRIRFRPPRLPRPRPRPKLKPRP, for which the “shrunken log2 fold change” value was 0.0386.

RRIRPRPPRLPRPRPRPHALPRP: the “shrunken log2 fold change” value is -0.376.

For the sequence RRIRLRPPRLPRPRPRPWTAPRP, the “shrunken log2 fold change” value was found to be 0.0908.

For the sequence RRIRIRPPRLPRPRPRPSLFPRP, the “shrunken log2 fold change” value was -0.66.

Consider RRIRPRPPRLPRPRPRPHFRPRP, for which the “shrunken log2 fold change” value was found to be 0.0655.

For the sequence RRIRWRPPRLPRPRPRPNPIPRP, the “shrunken log2 fold change” value is -0.149.

Regarding RRIRLRPPRLPRPRPRPWYGPRP, the “shrunken log2 fold change” value is -0.53.

Turning to RRIRARPPRLPRPRPRPKLQPRP, the “shrunken log2 fold change” value was 0.64.

As to RRIRPRPPRLPRPRPRPMFSPRP, the “shrunken log2 fold change” value is -0.295.

With RRIRCRPPRLPRPRPRPSDNPRP, the “shrunken log2 fold change” value is -0.66.

Take RRIRARPPRLPRPRPRPYNSPRP: the “shrunken log2 fold change” value was -1.21.

Consider RRIRFRPPRLPRPRPRPHTCPRP, for which the “shrunken log2 fold change” value worked out at 0.00442.

Take RRIRARPPRLPRPRPRPLMFPRP: the “shrunken log2 fold change” value was 0.187.

RRIRSRPPRLPRPRPRPYYRPRP: the “shrunken log2 fold change” value was -0.0115.

Take RRIRPRPPRLPRPRPRPKKYPRP: the “shrunken log2 fold change” value was -0.555.

As for RRIRRRPPRLPRPRPRPKVDPRP, the “shrunken log2 fold change” value was 0.0529.

As for RRIRYRPPRLPRPRPRPTIAPRP, the “shrunken log2 fold change” value is -0.338.

Turning to RRIRWRPPRLPRPRPRPYGCPRP, the “shrunken log2 fold change” value was -0.189.

With RRIRIRPPRLPRPRPRPNFTPRP, the “shrunken log2 fold change” value is -0.545.

With RRIRLRPPRLPRPRPRPYFKPRP, the “shrunken log2 fold change” value was -1.3.

As to RRIRVRPPRLPRPRPRPLAIPRP, the “shrunken log2 fold change” value turned out to be 0.0184.

In the case of RRIRGRPPRLPRPRPRPLPAPRP, the “shrunken log2 fold change” value is 1.33.

Consider RRIRRRPPRLPRPRPRPPNYPRP, for which the “shrunken log2 fold change” value came out at 0.0616.

For the sequence RRIRRRPPRLPRPRPRPVSFPRP, the “shrunken log2 fold change” value stood at 0.178.

On to RRIRKRPPRLPRPRPRPCSMPRP, for which the “shrunken log2 fold change” value was -0.00483.

As for RRIRARPPRLPRPRPRPGMGPRP, the “shrunken log2 fold change” value was 0.639.

With RRIRIRPPRLPRPRPRPDEMPRP, the “shrunken log2 fold change” value was -0.15.

As for RRIRHRPPRLPRPRPRPTCVPRP, the “shrunken log2 fold change” value was 0.134.

For RRIRRRPPRLPRPRPRPIGQPRP, the “shrunken log2 fold change” value came out at 0.182.

For the sequence RRIRVRPPRLPRPRPRPCPPPRP, the “shrunken log2 fold change” value was -0.216.

Take RRIRRRPPRLPRPRPRPFHGPRP: the “shrunken log2 fold change” value was -0.17.

On to RRIRERPPRLPRPRPRPNACPRP, for which the “shrunken log2 fold change” value is -0.00102.

RRIRPRPPRLPRPRPRPMGDPRP: the “shrunken log2 fold change” value was found to be 0.234.

For the sequence RRIRGRPPRLPRPRPRPIDVPRP, the “shrunken log2 fold change” value was 0.0296.

For RRIRKRPPRLPRPRPRPWTHPRP, the “shrunken log2 fold change” value is 0.0375.

Take RRIRNRPPRLPRPRPRPTYGPRP: the “shrunken log2 fold change” value is -0.0506.

RRIRCRPPRLPRPRPRPIDNPRP: the “shrunken log2 fold change” value is -0.755.

Turning to RRIRPRPPRLPRPRPRPAENPRP, the “shrunken log2 fold change” value was -0.197.

RRIRERPPRLPRPRPRPTTYPRP: the “shrunken log2 fold change” value was -0.8.

Turning to RRIRKRPPRLPRPRPRPKQMPRP, the “shrunken log2 fold change” value came out at 0.471.

In the case of RRIRYRPPRLPRPRPRPAMSPRP, the “shrunken log2 fold change” value was -0.0191.

As for RRIRPRPPRLPRPRPRPYMHPRP, the “shrunken log2 fold change” value is -0.493.

For RRIRWRPPRLPRPRPRPERAPRP, the “shrunken log2 fold change” value worked out at 0.707.

As for RRIRGRPPRLPRPRPRPGEIPRP, the “shrunken log2 fold change” value was 0.727.

Take RRIRSRPPRLPRPRPRPHQLPRP: the “shrunken log2 fold change” value was -0.201.

Regarding RRIRRRPPRLPRPRPRPMCKPRP, the “shrunken log2 fold change” value turned out to be 0.141.

Take RRIRWRPPRLPRPRPRPTKQPRP: the “shrunken log2 fold change” value is 0.0132.

On to RRIRCRPPRLPRPRPRPFILPRP, for which the “shrunken log2 fold change” value is -0.898.

With RRIRIRPPRLPRPRPRPWTMPRP, the “shrunken log2 fold change” value was -0.163.

In the case of RRIRNRPPRLPRPRPRPAFSPRP, the “shrunken log2 fold change” value is -0.183.

For the sequence RRIRWRPPRLPRPRPRPCIMPRP, the “shrunken log2 fold change” value is -0.339.

RRIRMRPPRLPRPRPRPAWCPRP: the “shrunken log2 fold change” value stood at 3.93.

As to RRIRLRPPRLPRPRPRPSMDPRP, the “shrunken log2 fold change” value was -0.327.

For the sequence RRIRQRPPRLPRPRPRPLELPRP, the “shrunken log2 fold change” value was found to be 0.0289.

For the sequence RRIRERPPRLPRPRPRPCPQPRP, the “shrunken log2 fold change” value was -0.232.
